Experimental data: US20190112365A1 (EISAI R AND D MANAGEMENT, published 2019)
Residue numbers refer to the chain shown, from its start. Several values for one entry are separate records, joined by “and”; a condition that tells them apart may be missing. Identical values can stand only once. Like-named read-outs stand apart in the source and are kept apart here. Each block holds one binder with its values, some of them ahead of it.

How the values were obtained:
[1] = target: T1, Human Tau 2N4R, wild type, recombinant full length (human, UniProt P10636 2-758); test: SPR BIAcore, mAb captured by anti-human IgG, Tau flowed, 1:1 Langmuir
T1 construct: Full length 2N4R isoform; monomer in SPR and ELISA; heparin-induced aggregates or seeds in the functional assays; also called Tau441; Tau-441
Protocol: (§1) All experiments were performed using a BIAcore™ T-100 instrument (GE Healthcare). 10 μL anti-human IgG (monoclonal mouse anti-human Fc) from human antibody capture kit (GE Healthcare) was diluted to 25 μL/mL in 200 μL final immobilization buffer (10 mM sodium acetate, pH 5.0). The flow rate was set to 5 μL/min, flowpath 1. Fifty μL N-hydroxysuccinamide (NETS) and 50 μL 1-ethyl-3-(3-dimethylaminopropyl) carbidiimide (EDC) were mixed and injected for 420 sec to activate the CM5 chip surface. The diluted antibody was injected for 360 seconds followed by 1 M ethanolamine for 420 seconds. The flowpath was then switched to flowpath 2. A new EDC/NHS mixture was prepared and the procedure was repeated for flow cell 2. The surface was conditioned by 2 injections of 30 sec using flowpath 1, 2 at 30 μL/min of 3M MgCl₂. For the anti-mouse surface, 10 μL anti-mouse IgG (polyclonal rabbit anti-mouse IgG) from mouse antibody capture kit (GE Healthcare) was diluted to 30 μL/mL in 324 μL final immobilization buffer (10 mM sodium acetate, pH 5.0). The flow rate was set to 5 μL/min, flowpath 3. Fifty μL NHS and 50 μL EDC were mixed and injected for 420 sec to activate the chip surface. The diluted antibody was injected for 420 sec. 1 M ethanolamine was injected for 420 sec. Flow path was switched to flowpath 4. A new EDC/NHS mixture was prepared and the procedure was repeated for flow cell 4. The surface was conditioned by 2 injections of 30 sec using flowpath 3, 4 at 30 μL/min of 10 mM glycine, pH 1.7.
Binding of humanized and mouse antibodies were analyzed by BIAcore™ to determine their relative association rates (ka), dissociation rates (kd), and equilibrium binding constants (KD). Anti-mouse or anti-human antibodies were immobilized on a CM5 chip and sample mAbs were captured on the chip. 2N4R Tau was flowed over the chip and binding observed. The binding constants kₐ, kd, and KD were determined using a 1:1 Langmuir fitting model. Both 7G6-HCzu12-based mAbs had similar kₐ and kd values (Table 8). However, the kₐ of 7G6-HCzu11 was decreased, though the kd was unaffected. Therefore, human residues in the Vh3 framework impact binding to Tau.

[2] = target: T1, Human Tau 2N4R, wild type, recombinant …; test: as above; remark: listed apart in the source
Protocol: as §1
Binding of humanized and mouse antibodies were analyzed by surface plasmon resonance (BIAcore™) to determine their relative association rates (kₐ), dissociation rates (kd), and equilibrium binding constants (KD). Anti-mouse or anti-human antibodies were immobilized on a CM5 chip and sample mAbs were captured on the chip. 2N4R Tau was flowed over the chip and binding observed. The binding constants kₐ, kd, and KD were determined using a 1:1 Langmuir fitting model.

T1 sequence (P10636 other isoform, or with tags, fused parts or gaps limits assumed): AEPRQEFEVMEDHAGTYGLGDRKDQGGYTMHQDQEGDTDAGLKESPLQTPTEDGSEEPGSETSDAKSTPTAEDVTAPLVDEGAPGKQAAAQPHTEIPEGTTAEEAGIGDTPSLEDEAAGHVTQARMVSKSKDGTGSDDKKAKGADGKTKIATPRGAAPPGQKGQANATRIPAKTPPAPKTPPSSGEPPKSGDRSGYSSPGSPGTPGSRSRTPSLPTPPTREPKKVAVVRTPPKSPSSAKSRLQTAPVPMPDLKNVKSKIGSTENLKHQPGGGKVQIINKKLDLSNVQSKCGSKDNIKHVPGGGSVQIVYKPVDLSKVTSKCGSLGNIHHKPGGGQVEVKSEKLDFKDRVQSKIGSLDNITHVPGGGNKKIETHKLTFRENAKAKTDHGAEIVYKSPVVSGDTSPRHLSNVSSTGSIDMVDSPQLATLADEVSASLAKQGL

B1: 7G6-HCzu17-LCzu12 (antibody, human IgG1, kappa, V domains shown)
VH: EVQLLESGGGLVQPGGSLRLSCAASGYTFTTYWITWVRQAPGKGLEWVSDIYPGSSICNYNEKFKSRFTISVDNSKNTLYLQMNSLRAEDTAVYYCAREDGYDAWFAYWGQGTLVTVSS
VL: DVQMTQSPSSLSASVGDRVTITCRSSQSILHSNGNTYLEWYQQKPGKAPKLLICKVSNRFSGVPSRFSGSGSGTDFTLTISSLQPEDFATYYCFQGSHVPFTFGQGTKLEIKR
notes: humanized, human IgG1 kappa
- Kd [1]: 0.073 nM
- koff [1]: 0.000124 s⁻¹
- kon [1]: 1.7e+06 M⁻¹ s⁻¹

B7: 7G6-HCzu1-LCzu1 (antibody, human IgG1, kappa, V domains shown)
VH: QVQLVQSGAEVKKPGASVKVSCKASGYTFTTYWITWVRQAPGQGLEWMGDIYPGSSICNYNEKFKSRVTMTRDTSTSTVYMELSSLRSEDTAVYYCAREDGYDAWFAYWGQGTLVTVSS
VL: DVVMTQSPLSLPVTLGQPASISCRSSQSILHSNGNTYLEWFQQRPGQSPRRLIYKVSNRFSGVPDRFSGSGSGTDFTLKISRVEAEDVGVYYCFQGSHVPFTFGQGTKLEIKR
notes: humanized, human IgG1 kappa
- Kd [2]: 0.202 nM
- koff [2]: 0.000519 s⁻¹
- kon [2]: 2.57e+06 M⁻¹ s⁻¹

B10: 7G6-HCzu3-LCzu2 (antibody, human IgG1, kappa, V domains shown)
VH: B7 VH with R72V, V79A
VL: B7 VL with F41Y, R51L, Y54C
notes: humanized, human IgG1 kappa
- Kd [2]: 0.121 nM
- koff [2]: 0.000242 s⁻¹
- kon [2]: 2e+06 M⁻¹ s⁻¹

B13: 7G6-HCzu3-LCzu1 (antibody, human IgG1, kappa, V domains shown)
VH: B7 VH with R72V, V79A
VL: B7 VL
notes: humanized, human IgG1 kappa
- Kd [2]: 0.309 nM
- koff [2]: 0.000856 s⁻¹
- kon [2]: 2.77e+06 M⁻¹ s⁻¹

B14: 7G6-HCzu5-LCzu6 (antibody, human IgG1, kappa, V domains shown)
VH: B7 VH with C58S, R72V, V79A
VL: B7 VL with F41Y, R51L, Y54S
notes: humanized, human IgG1 kappa
- Kd [2]: 0.0961 nM
- koff [2]: 0.000206 s⁻¹
- kon [2]: 2.14e+06 M⁻¹ s⁻¹

B15: 7G6-HCzu1-LCzu2 (antibody, human IgG1, kappa, V domains shown)
VH: B7 VH
VL: B7 VL with F41Y, R51L, Y54C
notes: humanized, human IgG1 kappa
- Kd [2]: 0.11 nM
- koff [2]: 0.000241 s⁻¹
- kon [2]: 2.2e+06 M⁻¹ s⁻¹

B16: 7G6-HCzu5-LCzu2 (antibody, human IgG1, kappa, V domains shown)
VH: B7 VH with C58S, R72V, V79A
VL: B7 VL with F41Y, R51L, Y54C
notes: humanized, human IgG1 kappa
- Kd [2]: 0.127 nM
- koff [2]: 0.000237 s⁻¹
- kon [2]: 1.86e+06 M⁻¹ s⁻¹

B18: 7G6-HCzu4-LCzu1 (antibody, human IgG1, kappa, V domains shown)
VH: B7 VH with N61A, E62Q, K65Q, S66G, R72V, V79A
VL: B7 VL
notes: humanized, human IgG1 kappa
- Kd [2]: 0.237 nM
- koff [2]: 0.000847 s⁻¹
- kon [2]: 3.57e+06 M⁻¹ s⁻¹

B20: 7G6-HCzu2-LCzu1 (antibody, human IgG1, kappa, V domains shown)
VH: B7 VH with R72V
VL: B7 VL
notes: humanized, human IgG1 kappa
- Kd [2]: 0.226 nM
- koff [2]: 0.00064 s⁻¹
- kon [2]: 2.83e+06 M⁻¹ s⁻¹

B21: 7G6-HCzu4-LCzu2 (antibody, human IgG1, kappa, V domains shown)
VH: B7 VH with N61A, E62Q, K65Q, S66G, R72V, V79A
VL: B7 VL with F41Y, R51L, Y54C
notes: humanized, human IgG1 kappa
- Kd [2]: 0.121 nM
- koff [2]: 0.000242 s⁻¹
- kon [2]: 2e+06 M⁻¹ s⁻¹

B22: 7G6-HCzu2-LCzu2 (antibody, human IgG1, kappa, V domains shown)
VH: B7 VH with R72V
VL: B7 VL with F41Y, R51L, Y54C
notes: humanized, human IgG1 kappa
- Kd [2]: 0.101 nM
- koff [2]: 0.000214 s⁻¹
- kon [2]: 2.12e+06 M⁻¹ s⁻¹

B26: 7G6-HCzu3-LCzu6 (antibody, human IgG1, kappa, V domains shown)
VH: B7 VH with R72V, V79A
VL: B7 VL with F41Y, R51L, Y54S
notes: humanized, human IgG1 kappa
- Kd [2]: 0.12 nM
- koff [2]: 0.000227 s⁻¹
- kon [2]: 1.9e+06 M⁻¹ s⁻¹

Further lines, results first:

- Kd [1]: 0.129 nM and 0.0875 nM
- koff [1]: 0.000193 s⁻¹ and 0.000151 s⁻¹
- kon [1]: 1.49e+06 M⁻¹ s⁻¹ and 1.72e+06 M⁻¹ s⁻¹
B2: 7G6-HCzu12-LCzu12 (antibody, human IgG1, kappa)
heavy: not shown
light: DVQMTQSPSSLSASVGDRVTITCRSSQSILHSNGNTYLEWYQQKPGKAPKLLICKVSNRFSGVPSRFSGSGSGTDFTLTISSLQPEDFATYYCFQGSHVPFTFGQGTKLEIKRTVAAPSVFIFPPSDEQLKSGTASVVCLLNNFYPREAKVQWKVDNALQSGNSQESVTEQDSKDSTYSLSSTLTLSKADYEKHKVYACEVTHQGLSSPVTKSFNRGEC
notes: humanized, human IgG1 kappa

- Kd [1]: 0.205 nM
- koff [1]: 0.000175 s⁻¹
- kon [1]: 853000 M⁻¹ s⁻¹
B3: 7G6-HCzu11-LCzu11 (antibody, human IgG1, kappa, V domains shown)
VH: B1 VH with V72R, R98K
VL: B1 VL with V2I, C54Y
notes: humanized, human IgG1 kappa

- Kd [1]: 0.0689 nM
- koff [1]: 0.000119 s⁻¹
- kon [1]: 1.73e+06 M⁻¹ s⁻¹
B4: 7G6-HCzu12-LCzu14 (antibody, human IgG1, kappa)
heavy: not shown
light: B2 light with V2I
notes: humanized, human IgG1 kappa

- Kd [1]: 0.0888 nM
- koff [1]: 0.000124 s⁻¹
- kon [1]: 1.4e+06 M⁻¹ s⁻¹
B5: 7G6-HCzu12-LCzu13 (antibody, human IgG1, kappa)
heavy: not shown
light: B2 light with C54Y
notes: humanized, human IgG1 kappa

- Kd [1]: 0.132 nM
- koff [1]: 0.000181 s⁻¹
- kon [1]: 1.38e+06 M⁻¹ s⁻¹
B6: 7G6-HCzu12-LCzu11 (antibody, human IgG1, kappa)
heavy: not shown
light: B2 light with V2I, C54Y
notes: humanized, human IgG1 kappa

- Kd [2]: 0.095 nM
- koff [2]: 0.000278 s⁻¹
- kon [2]: 2.93e+06 M⁻¹ s⁻¹
B8: 7G6-HCzu5-LCzu21 (antibody, human IgG1, kappa, V domains shown)
VH: B7 VH with C58S, R72V, V79A
VL: B7 VL with R51L, Y54S
notes: humanized, human IgG1 kappa

- Kd [2]: 0.0961 nM
- koff [2]: 0.000213 s⁻¹
- kon [2]: 2.21e+06 M⁻¹ s⁻¹
B9: 7G6-HCzu6-LCzu6 (antibody, human IgG1, kappa, V domains shown)
VH: B7 VH with C58S, R72V
VL: B7 VL with F41Y, R51L, Y54S
notes: humanized, human IgG1 kappa

- Kd [2]: 0.0938 nM
- koff [2]: 0.000193 s⁻¹
- kon [2]: 2.06e+06 M⁻¹ s⁻¹
B11: 7G6-HCzu9-LCzu6 (antibody, human IgG1, kappa, V domains shown)
VH: B7 VH with N61A, E62Q, K65Q, S66G, R72V
VL: B7 VL with F41Y, R51L, Y54S
notes: humanized, human IgG1 kappa

- Kd [2]: 0.108 nM
- koff [2]: 0.000213 s⁻¹
- kon [2]: 1.98e+06 M⁻¹ s⁻¹
B12: 7G6-HCzu10-LCzu6 (antibody, human IgG1, kappa, V domains shown)
VH: B7 VH with N61A, E62Q, K65Q, S66G
VL: B7 VL with F41Y, R51L, Y54S
notes: humanized, human IgG1 kappa

- Kd [2]: 0.0828 nM
- koff [2]: 0.000298 s⁻¹
- kon [2]: 3.6e+06 M⁻¹ s⁻¹
B17: 7G6-HCzu5-LCzu8 (antibody, human IgG1, kappa, V domains shown)
VH: B7 VH with C58S, R72V, V79A
VL: B7 VL with L30V, Y54S
notes: humanized, human IgG1 kappa

- Kd [2]: 0.0968 nM
- koff [2]: 0.000304 s⁻¹
- kon [2]: 3.14e+06 M⁻¹ s⁻¹
B19: 7G6-HCzu5-LCzu7 (antibody, human IgG1, kappa, V domains shown)
VH: B7 VH with C58S, R72V, V79A
VL: B7 VL with Y54S
notes: humanized, human IgG1 kappa

- Kd [2]: 1.48 nM
- koff [2]: 0.00277 s⁻¹
- kon [2]: 1.88e+06 M⁻¹ s⁻¹
B23: 7G6-HCzu5-LCzu22 (antibody, human IgG1, kappa, V domains shown)
VH: B7 VH with C58S, R72V, V79A
VL: B7 VL with F41Y, Y54S
notes: humanized, human IgG1 kappa; also called 7G6-LCzu22

- Kd [2]: 0.162 nM
- koff [2]: 0.00053 s⁻¹
- kon [2]: 3.27e+06 M⁻¹ s⁻¹
B24: 7G6-HCzu5-LCzu10 (antibody, human IgG1, kappa, V domains shown)
VH: B7 VH with C58S, R72V, V79A
VL: B7 VL with L30V
notes: humanized, human IgG1 kappa

- Kd [2]: 0.109 nM
- koff [2]: 0.000226 s⁻¹
- kon [2]: 2.08e+06 M⁻¹ s⁻¹
B25: 7G6-HCzu7-LCzu6 (antibody, human IgG1, kappa, V domains shown)
VH: B7 VH with C58S, N61A, E62Q, K65Q, S66G, R72V
VL: B7 VL with F41Y, R51L, Y54S
notes: humanized, human IgG1 kappa
